From publication PMC7445246 (Signal Transduction and Targeted Therapy, 2020) come the findings set out here.

Holding throughout (details): both partners purified
For test [1], the target named is T1, recombinant human PD-L1 (Homo sapiens, UniProt Q9NZQ7).
T1 construct: PD-L1, human; the methods are probably in the supplementary material; In the internalization assay hPD-L1 was expressed on CHO-K1 cells; also called hPD-L1
The experiment in a line: SPR; JS003 captured on biosensor; association with recombinant human PD-L1 at pH 7.4; dissociation followed at pH 6.0 (compared with pH 7.4). A general note: In SPR one partner is held on a chip, and binding of the other changes the refractive index at the surface.

Test [2] addresses T1, recombinant human PD-L1. As to the kind of experiment: SPR; JS003 captured on biosensor; association with recombinant human PD-L1 at pH 7.4; dissociation followed at pH 5.5 (compared with pH 7.4).
The target in test [3] is T1, recombinant human PD-L1. The experiment in a line: SPR; JS003 immobilized on the chip; serial dilutions of PD-L1 from 0.75 nM to 24 nM flowed through.

T1 sequence (Q9NZQ7 19-290): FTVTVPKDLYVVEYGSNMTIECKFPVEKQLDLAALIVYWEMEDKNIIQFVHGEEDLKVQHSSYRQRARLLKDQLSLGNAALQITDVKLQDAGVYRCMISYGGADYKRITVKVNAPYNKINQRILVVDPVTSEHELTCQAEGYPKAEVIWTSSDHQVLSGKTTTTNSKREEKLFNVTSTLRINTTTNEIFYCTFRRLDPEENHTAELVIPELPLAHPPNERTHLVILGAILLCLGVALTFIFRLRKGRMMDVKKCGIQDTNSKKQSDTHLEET

B1: JS003 (antibody, V domains shown)
VH: QGQLQESGPSLVKPSQTLSLTCTVSGDSITRGYWNWIRKHPGKGLEYIGYISYTGSTYSNLSLKSRVTISRDTSKNQYYLKLSSVTAADTAVYYCATSTGWLDPVDYWGQGTLVTVSS
VL: DIVMTQSPDSLAVSLGERATINCKASQNVDTSVAWFQQKPGQPPKALIYSASFRYSGVPDRFSGSGSGTDFTLTISSLQAEDVAVYFCQQYYGYPFTFGQGTKLEIK
notes: humanized PD-L1 specific mAb; Fab part as the heavy chain of m2; as the light chain of m2; Whole humanized mAb; Labelled with CypHer5E in the internalization assay only; also called JS003 antibodies
With B1, the “fold faster dissociation rate at pH 6.0 than at pH 7.4” value in the test with recombinant human PD-L1 [1] was determined as 3.4 fold. For the same molecule, the “fold faster dissociation rate at pH 5.5 than at pH 7.4” value with recombinant human PD-L1 [2] is 8.7 fold. In addition, the equilibrium dissociation constant (Kd) in the test with recombinant human PD-L1 [3] came out at 0.288 nM.

As usually defined, the Kd is the constant that tells how readily two partners part at equilibrium.
